# Test results: article PMC6046605
# Several values for one entry are separate records, joined by “and”; a condition that tells them apart may be missing. Equal entries are not always repeated.
# How the values were obtained:
# [1] = target: murine norovirus (MNV) RNA-dependent RNA polymerase (RdRp), native (murine norovirus (MNV)); assay: SPR; data not shown; immobilised RdRp; Biacore2000, 1:1 Langmuir kinetics
# [2] = target: murine norovirus (MNV) RNA-dependent RNA polymerase (RdRp), native (murine norovirus (MNV)); assay: crystal structure; RdRp incubated with VPg at a molar ratio of 1:2 with UTP or GTP, oligo(A) or oligo(C), 2 mM MnCl2, 2 mM MgCl2; P21, six monomers in the asymmetric unit; 3.1 Å
# [3] = target: murine norovirus (MNV) RNA-dependent RNA polymerase (RdRp), native (murine norovirus (MNV)); assay: negative-stain electron microscopy; RdRp alone, 1-6 μM protein, 1 h at room temperature, uranyl formate stain; 2D class averages compared with projections of the hexamer model
# [4] = target: murine norovirus (MNV) RNA-dependent RNA polymerase (RdRp), native (murine norovirus (MNV)); assay: cross-linking; 0.001% glutaraldehyde, room temperature 6 min; 50 mM HEPES pH 7.4, 5 mM MgCl2, 5 mM DTT, 1 μM oligo(A)15, 2 μM RdRp, 6 μM VPg; SDS-PAGE and western blot with anti-RdRp or anti-VPg antisera
# [5] = target: murine norovirus (MNV) RNA-dependent RNA polymerase (RdRp), native (murine norovirus (MNV)); assay: SPR; Biacore2000; RdRp or mutant RdRp immobilised on a CM5 chip (amine coupling, sodium acetate pH 5.0); analyte in 20 mM Tris-HCl pH 8.0, 100 mM NaCl, 5 mM MgCl2; 1:1 Langmuir kinetics
# [6] = target: murine norovirus (MNV) RdRp D331A mutant (murine norovirus (MNV)); assay: as above
# [7] = target: murine norovirus (MNV) RdRp L354D mutant (murine norovirus (MNV)); assay: as above
# [8] = target: murine norovirus (MNV) RNA-dependent RNA polymerase (RdRp), native (murine norovirus (MNV)); assay: as above; remark: listed apart in the source
# [9] = target: murine norovirus (MNV) RdRp D331A mutant (murine norovirus (MNV)); assay: not stated; D331A and L354D RdRp by themselves, in the absence of VPg; told only in the discussion
# [10] = target: murine norovirus (MNV) RdRp L354D mutant (murine norovirus (MNV)); assay: as above
substance,measurement,setting,value
"murine norovirus (MNV) RNA-dependent RNA polymerase (RdRp), native (enzyme)",Kd,[1],2.2 nM
same,stoichiometry N,[2],6
same,stoichiometry N,[3],6
same,stoichiometry N,[4],2 and 3 and 6
murine norovirus (MNV) VPg(1-73) (domain or fragment),Kd,[1],17 nM
"murine norovirus (MNV) VPg(1-124), full length (natural protein)",Kd,[5],8.9 nM
same,Kd,[6],23 nM
same,Kd,[7],210 nM
same,Kd,[8],8.7 nM
murine norovirus (MNV) RdRp D331A mutant (enzyme),stoichiometry N,[9],6
murine norovirus (MNV) RdRp L354D mutant (enzyme),stoichiometry N,[10],6
